In publication PMC4488448:

Molecular target: HER-2 (human (endogenous in SKBR3 and T47D)) (UniProt P04626)

Substance | IC50 of killing of HER-2-overexpressing SKBR3 cells (luminescent cell viability assay; Fig 4A) [µg/mL]
eSrtA-conjugated cFRP5-DM1 (antibody) | 0.067
eSrtA-conjugated cFRP5-maytansine (antibody) | 0.0779
